According to the DeepSol protein solubility set:

assay: soluble on expression in E. coli; label from the status in PepcDB or PDB records

Question: With “MTQTNRVIIFDTTLRDGEQSPGAAMTKEEKIRVARQLEKLGVDIIEAGFAAASPGDFEAVNAIAKTITKSTVCSLSRAIERDIRQAGEAVAPAPKKRIHTFIATSPIHMEYKLKMKPKQVIEAAVKAVKIAREYTDDVEFSCEDALRSEIDFLAEICGAVIEAGATTINIPDTVGYSIPYKTEEFFRELIAKTPNGGKVVWSAHCHNDLGLAVANSLAALKGGARQVECTVNGLGERAGNASVEEIVMALKVRHDLFGLETGIDTTQIVPSSKLVSTITGYPVQPNKAIVGANAFSHESGIHQDGVLKHRETYEIMSAESVGWATNRLSLGKLSGRNAFKTKLADLGIELESEEALNAAFARFKELADKKREIFDEDLHALVSDEMGSMNAESYKFISQKISTETGEEPRADIVFSIKGEEKRASATGSGPVDAIFKAIESVAQSGAALQIYSVNAVTQGTESQGETSVRLARGNRVVNGQGADTDVLVATAKAYLSALSKLEFSAAKPKAQGSGTI” as the sequence, how does the “soluble on expression in E. coli” value read?
Answer: not soluble

Question: For “MSLSEPILFVDDEQHVLNALQRVFSESGLETVFTRSPIEALELCRSKKFAVIVSDNMMPEMKGIELLTRIKEESPETVKCLLTAHADLDTALQAINSGEVFRFIVKPWRNEELYQAVSEGVARFREGHHHHHTDPNSSSVDKLAAALEHHHHHH”, which “soluble on expression in E. coli” value is on record?
Answer: soluble

Question: With “ASMTTPCITILSGHFPKETIYARKTKELVEEYCSIHGYNFYYEESEPLETEEHALHFRRSWIIQQAAEKFPSTEWFLWLDSDVYVNPKNKNKPITSFIDLSDPNILYHTFHEAPWGSYPINTGVKFVHKDALEIEKIVWSLRNEAPWNTFPYEQKTVYEYVFPRIPGRYIVHDPYTLNCIVKAYPEHVKDALFVHMCGTSRAERDEHMEMVAT” as the sequence, how does the “soluble on expression in E. coli” value read?
Answer: soluble

Question: Which “soluble on expression in E. coli” value does the source give for “MERMMLIAFDLEGTLTDMVSWELLHKKFETCGLAKKNAELFFSGRISYEEWAKLDASLWKGRRREEVEEVFKEVSLKDYAEELFRWLKEKGFKTAIITGGLMCLAKKVAEKLNPDYVYANELVFNEKGEITGDVIVRVTFDNKGEILERLKRELNPTLTVAVGDWKNDLPMFEVADISISLGEDHADYLAKDLREVKKILKEVLLETEKL” here?
Answer: soluble

Question: With “MANSPKKPSDGTGVSASDTPKYQHTVPETKPAFNLSPGKASELSHSLPSPSQIKSTAHVSSTHNDAAGNTDDSVLPKNVSPTTNLRVESNGDTNNMFSSPAGLALPKKDDKKKNKGTSKADSKDGKASNSSGQNAQQQSDPNKMQDVLFSAGIDVREEEALLNSSINASKSQVQTNNVKIPNHLPFLHPEQVSNYMRKVGKEQNFNLTPTKNPEILDMMSSACENYMRDILTNAIVISRHRRKAVKINSGRRSEVSAALRAIALIQKKEEERRVKKRIALGLEKEDYENKIDSEETLHRASNVTAGLRAGSKKQYGWLTSSVNKPTSLGAKSSGKVASDITARGESGLKFREAREEPGIVMRDLLFALENRRNSVQTIISKGYAKIRD” as the sequence, how does the “soluble on expression in E. coli” value read?
Answer: not soluble

Question: For “MLLAYSMKVVYHLFSGGKDSSLAAWILKKLGYEVKLITITFGVLDNWKFARETAEILGFDHEVIEMPIGILEKATEMCIKEGRAGNAIQYIHERALEYIASREEVKRISDGTRRDDRVPFLDLSKARSLEDRYNVAYIRPLLGLGYKTIRELVNEIFVVVEDESEKVQKGDYETELRELIRRKGHDPSQIFPKRHVQSRVVGLR”, which “soluble on expression in E. coli” value is on record?
Answer: not soluble

Question: For “MFKIQEVRELIKLIDSSNIDEFEYKKDGTTIKMKKRGNEVVAVQAPVAKQAVQPVAPVEVETTVAAAQVEVPKQEEKKAVQNENLHKITSPMVGTFYSSSSSSPDTPPYVSVGDRVSKDSIVCIVEAMKLFNEIDADVDGEIVEILVNNGQLVEYGQPLFLVKA”, which “soluble on expression in E. coli” value is on record?
Answer: not soluble

Question: For “MTTLKLDTLSDRIKAHKNALVHIVKPPVCTERAQHYTEMYQQHLDKPIPVRRALALAHHLANRTIWIKHDELIIGNQASEVRAAPIFPEYTVSWIEKEIDDLADRPGAGFAVSEENKRVLHEVCPWWRGQTVQDRCYGMFTDEQKGLLATGIIKAEGNMTSGDAHLAVNFPLLLEKGLDGLREEVAERRSRINLTVLEDLHGEQFLKAIDIVLVAVSEHIERFAALAREMAATETRESRRDELLAMAENCDLIAHQPPQTFWQALQLCYFIQLILQIESNGHSVSFGRMDQYLYPYYRRDVELNQTLDREHAIEMLHSCWLKLLEVNKIRSGSHSKASAGSPLYQNVTIGGQNLVDGQPMDAVNPLSYAILESCGRLRSTQPNLSVRYHAGMSNDFLDACVQVIRCGFGMPAFNNDEIVIPEFIKLGIEPQDAYDYAAIGCIETAVGGKWGYRCTGMSFINFARVMLAALEGGHDATSGKVFLPQEKALSAGNFNNFDEVMDAWDTQIRYYTRKSIEIEYVVDTMLEENVHDILCSALVDDCIERAKSIKQGGAKYDWVSGLQVGIANLGNSLAAVKKLVFEQGAIGQQQLAAALADDFDGLTHEQLRQRLINGAPKYGNDDDTVDTLLARAYQTYIDELKQYHNPRYGRGPVGGNYYAGTSSISANVPFGAQTMATPDGRKAHTPLAEGASPASGTDHLGPTAVIGSVGKLPTAAILGGVLLNQKLNPATLENESDKQKLMILLRTFFEVHKGWHIQYNIVSRETLLDAKKHPDQYRDLVVRVAGYSAFFTALSPDAQDDIIARTEHML”, which “soluble on expression in E. coli” value is on record?
Answer: soluble

Question: Which “soluble on expression in E. coli” value does the source give for “MGSDKIHHHHHHMGNFLYGIDFGTSNSVLSIFDEDKNEIIETLSVPSILYFPDAYDPALPLQYYVGEDAIRYYISDGMKGRFMKSIKRVLPRTNFVETRIHTKSFNAAGLITLILKELKTKADAIIGMDCKKAIIGRPVYFDDDNTVNDAVAQKRLLQAAQQAGLSDIRFQYEPIGAAFAYERTISKKEHVLVADLGGGTTDFTFIELDPHKNNRKDRRSDIIATGGIYIGGDSFDSAFMWDKGTPYFGRGVTYESMPGKMVDVPPSFFSNICSWEKMNFFNGVKVQNDLRQYYNYSKQNDKLKNLITLTENNLGYSIFQSIEKTKVDLSIQSSSSFSYHKADIHIDEPIDLTAYNRIIQRDVTKINNYLESFLSKHAIVPESIDSLFLTGGTSMVQAIQALFKEKFPHIAITSGDNFISVSKGLAYSGYLFD” here?
Answer: not soluble

Question: For “MGGLFTGIALDSAGHDVTIAEQSAGDLRSRGGGIVAQQSIRQFLSRHDIVDPANITTRASERRFLTADGDVRTSTPDSMVFTSWDAVYRQLRAAFPDDRYHTGQTVTGVRATDGTVTFSDGDRTTADLVVAADGGQSTARAQLFPDADPEFADYVAWRGVVSEAELSDAVIDAFDGRFTFYQGEQMLILAYFIPGEDGNTAPGDRRLNWVWYDTLSGRERETIFTDTTGTSQQFSVSPGQLRDPVESHQRERAAETLPPVFTDLVATTAAPFVQAIYDLQSPQMTVDRVCLVGDAAFVARPHTAAGTSKAASDAVELKAALDRHSSLGGALASWDDARTDYGARLVAQGKRMGDERLSLGSLEHHHHHH”, which “soluble on expression in E. coli” value is on record?
Answer: not soluble

Question: For “MSLVLDKLLYTGYNRLIDLGWRRSGHYLYKPNGKTSCCSLYTIRLDSYNFKIAKEQKKAIKKWVKYVNGKPLKPMKSEISTDYLNNAFQTIESLGAEKYSVTMEPCTYTDEKFEVFKKYQMQVHLEKEEEITKKGFSRFLCNSPLFNEDKGIKYGSYHQMYRFQGRLVAVGVLDLLPHGVSSVYLFYDPDMSKFSLGRISACREIWLALECGYRYYYMGYYIHTCPKMKYKATYSPSYLLNPGTNKWIPIENFTSLWNTGAPKYISFGDENNSDIQTAVDYDSSEDSSQNEDDYTLFNRQLPGILSVNVAESLVSENFANIGNSTFPTRHVLSYFPQVKHWFVEINAAVGEEVAKSYTLVLSSEGHHHHHH”, which “soluble on expression in E. coli” value is on record?
Answer: not soluble

Question: For “MGSDKIHHHHHHMRRGGTAFSSKCKICGKAAPFSLPVCPECSKKDAALEIATSLHPPLYEKRVEGCNLCSNKCSGIALCGKPEYGKLTYYEDPLPTNCCNAWFCNGSKLTGTNLAVFYYGCNFDCLYCQNWTHKYFEDVRTVSVDELLRAAKNFRVRCVCHFGGSPEPQLPFALKFSRKALEFKEDLMICWEWNGAGNTSLALKAAELSSRSGGTVKFDLKAWNPNLHVLLTGRDNERVKDNFERIYDKHGEVLSATTLLVPYYVDEEEVEGIARFISSFSTEIPYSLLVFHPDYRMSDFPVTPVQQVKRCYKAAKKHLKNVNIGNLHLLGL”, which “soluble on expression in E. coli” value is on record?
Answer: not soluble

Question: For “MSLKLIGIVGSNADSSYNRLLLQYIGKEFYKMFDLEILEIKDIPMFNQSKDQTNSVLIQNMNRKILQADGVIIATPEHNHTIPAGLKSVLEWLSFKIHPLENKPVMIVGCSYYDQGTSRAQLHLRQILDAPGVNAIVMPGNEFLLGKAKEAFDENGNLIAEGTRQFLESTLQKFVEFIDVISKLEGAKPKDLPEDLHAKGTIETTIEGVDMAADDWVEQAAEAVQAVEGDTYVKLDRGILTVDQLNYFLKSMPMELTYADSNNQFLYYNKKMAAEEMFAKRQPGQVGNPLANCHPPKALKNVEWVIQQLRSGKTDAIRVHVPMHGPDTYVVHNYQAMYDDNGNYAGINEYILDFKPIVDWYLKQTGQELVGGKNVDAVSGASKKEAPETADSVSSASVHEEESATEKPTVDSVSSASIKEEGHHHHHH”, which “soluble on expression in E. coli” value is on record?
Answer: soluble

Question: Which “soluble on expression in E. coli” value does the source give for “MKLAVYSTKQYDKKYLQQVNESFGFELEFFDFLLTEKTAKTANGCEAVCIFVNDDGSRPVLEELKKHGVKYIALRCAGFNNVDLDAAKELGLKVVRVPAYDPEAVAEHAIGMMMTLNRRIHRAYQRTRDANFSLEGLTGFTMYGKTAGVIGTGKIGVAMLRILKGFGMRLLAFDPYPSAAALELGVEYVDLPTLFSESDVISLHCPLTPENYHLLNEAAFEQMKNGVMIVNTSRGALIDSQAAIEALKNQKIGSLGMDVYENERDLFFEDKSNDVIQDDVFRRLSACHNVLFTGHQAFLTAEALTSISQTTLQNLSNLEKGETCPNELV” here?
Answer: soluble

Question: With “MRVELDFRSVKMQVSQYLYQNVQSIWGDCISHPFVQGIGRGTLERDKFRFYIIQDYLFLLEYAKVFALGVVKACDEAVMREFSNAIQDILNNEMSIHNHYIRGLQITQKELQNARPTLANKSYTSYMLAEGFKGSIKEVAAAVLSCGWSYLVIAQNLSQIPNALEHAFYGHWIKGYSSKEFQACVNWNINLLDSLTLTSSKQEIEKLKDIFITTSEYEYLFWDMAYQSLEHHHHHH” as the sequence, how does the “soluble on expression in E. coli” value read?
Answer: not soluble

Question: For “MTSGLERLSNLLSKKDSVFVSDLLREAKVNELDETLSTTRLNHLIDKGYERITLQLDLGGESPGYLEKDKHYREADAALLNVIYPTNLSKINTRRKEQV”, which “soluble on expression in E. coli” value is on record?
Answer: not soluble

Question: For “MIKKYTCKNGVRIVMENIPTVRSVAIGIWIHAGSRNENEKNNGISHFLEHMFFKGTETRSAREIAESFDSIGGQVNAFTSKEYTCYYAKVLDEHAKYALDVLADMFFNSTFDEEELKKEKNVVCEEIKMYEDAPDDIVHDMLTKATYETHPLGYPILGTEETLNTFTGDTLRQYIKDHYTPENVVVSIAGNIDEAFLQTVEQYFGSYEGTTNREQVHSPIFHFNKVARKKETEQAHLCLGYKGLQMGHEDIYNLIVLNNVLGGSMSSRLFQEVREQRGLAYSVFSYHSSYEDTGMLTLYGGTGSQQLDTLYETMQETLETLKNTGITEKELINSKEQLKGNLMLSLESTNSRMSRNGKNELLLRKHRSLDEIIESVNTVTKENVDELIRNMFTDEFSAALISPDGKLPKGIKL”, which “soluble on expression in E. coli” value is on record?
Answer: not soluble

Question: For “MSLGRIYRGVEVGDVALGGKTPEEAREIVLRRAEGALERVELRGGPEGEISFDARRMGIDYKVRETVQAAYAVGREGNLLERLGERLRAAYGTVQIEPRVDYRPSVARQRIEEVASRLDRPPRQAEVNVYGSEVDVVGSREGYRVDVEATMRSVGEAVEDMSGEARLVGRVLEPEYTTAEAERAAERARRALDGELVLTYEGRRWTVSPAAIGDSLDITARDGEFRVGVDRDRLRENLSGVYAAINQEPVEAGYEISGEQITVTPSRTGRAIQDEKLLGAIEEGIFEGRREYRIPVAVDRPELTTAEAERLKPTDLLATYQTNYLTYDDSPGRVENLEIASEAVDGTLLAPGEVFSFNELAAPLDYHDTKVIINGRVDTAEGGGLCQVSSTLYMAANLAGLDVIERHPHYAELPYIRPGFDATVWFGALDMKFKNTSPGYILIREWVDRSTGTVNAAIYGRPSGIEVDMRSEKVSETVDEEGNPVTTWITYQTVRKNGEVVFDGVLHKDVYKYLKPAAPDAEGHHHHHH”, which “soluble on expression in E. coli” value is on record?
Answer: soluble
